Data published in patent CN114591431A.

Biological target: 重组人GAS6 his 蛋白(Novoprotein，Cat#C01W) (human) (UniProt Q14393)
Experiment: ELISA, coated human GAS6 his 0.5 ug/ml, positive control

Chain of UniProt Q14393 (Q14393 31-678 limits assumed, stated change not applied): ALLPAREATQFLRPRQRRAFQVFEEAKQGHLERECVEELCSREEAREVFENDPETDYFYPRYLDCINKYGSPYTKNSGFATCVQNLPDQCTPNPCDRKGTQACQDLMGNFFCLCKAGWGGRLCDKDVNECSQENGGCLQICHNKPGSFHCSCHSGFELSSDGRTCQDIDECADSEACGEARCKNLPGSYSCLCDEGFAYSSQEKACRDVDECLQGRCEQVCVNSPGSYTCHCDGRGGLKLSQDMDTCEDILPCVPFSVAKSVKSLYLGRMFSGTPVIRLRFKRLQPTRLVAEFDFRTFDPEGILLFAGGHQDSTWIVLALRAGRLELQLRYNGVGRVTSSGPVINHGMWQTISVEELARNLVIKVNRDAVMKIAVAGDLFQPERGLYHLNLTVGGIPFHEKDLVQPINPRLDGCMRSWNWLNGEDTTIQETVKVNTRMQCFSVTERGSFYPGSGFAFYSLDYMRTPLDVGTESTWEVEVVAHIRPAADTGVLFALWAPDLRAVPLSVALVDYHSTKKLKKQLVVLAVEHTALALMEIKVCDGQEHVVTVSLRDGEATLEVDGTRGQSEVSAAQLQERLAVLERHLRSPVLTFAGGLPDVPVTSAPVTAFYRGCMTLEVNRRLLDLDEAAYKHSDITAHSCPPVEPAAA

EC50: 0.43 nM
Substance: anti-huGas6 antibody (Santa cruz, sc-376087)
